In article PMC4605308 (Nucleic Acids Research, 2015):

Target: T1, hexahistidine-tagged ubiquitin (the ubiquitin part of the Rad6^iso∼Ub conjugate) (human, UniProt P0CG48 1-76, C-terminus linked to K88 of Rad6 C88K via an isopeptide linkage)
T1 construct: ubiquitin, human; The final model holds two additional N-terminal residues from the plasmid vector; also called His6-Ub; Ub-His6; source: in the crystal conjugated to Rad6^C88K
Assay: crystal structure; Rad6^iso∼Ub conjugate; sitting drop vapor diffusion at 20°C, 24% PEG 300, 50 mM sodium acetate, pH 5.4; one conjugate in the asymmetric unit, contacts between conjugates in the crystal
Settings: both partners purified

- binding result: binds
B1: Rad6 C88K (the Rad6 part of the Rad6^iso∼Ub conjugate) (enzyme, Saccharomyces cerevisiae, UniProt P06104 1-172, looked up)
chain: MSTPARRRLMRDFKRMKEDAPPGVSASPLPDNVMVWNAMIIGPADTPYEDGTFRLLLEFDEEYPNKPPHVKFLSEMFHPNVYANGEIKLDILQNRWTPTYDVASILTSIQSLFNDPNPASPANVEAATLFKDHKSQYVKRVKETVEKSWEDDMDDMDDDDDDDDDDDDDEAD
modifications: lysine at position 88 linked to the ubiquitin C-terminus via an isopeptide linkage
notes: Rad6, Saccharomyces cerevisiae, with C88K; Written on its own for the non-covalent contact between Rad6 of one conjugate and ubiquitin of another in the crystal; source: E. coli Rosetta2 DE3 pLysS, purified; in the crystal conjugated to His6-Ub; not shown: MBP, N-terminal, cleaved; His6, N-terminal, cleaved
